According to PMC4646333:

Assays:
[1] = target: R117A mutant of ferritin from Pyrococcus furiosus (R117A-PfFtn) (Pyrococcus furiosus) (UniProt Q8U2T8)
[2] = target: wild-type ferritin from Pyrococcus furiosus (WT-PfFtn) (Pyrococcus furiosus) (UniProt Q8U2T8); assay: native gel or EMSA; native gel electrophoresis of apo protein; WT-PfFtn 5 μM monomer, R117A-PfFtn 4.3 or 80 μM monomer

Row | rate of Fe(II) oxidation (Fe(III) formation at 315 nm after addition of two Fe(II) per subunit), R117A-PfFtn against WT-PfFtn [1] [fold] | stoichiometry N [2] | Substance
1 | > 100 | – | R117A mutant of ferritin from Pyrococcus furiosus (R117A-PfFtn) (from UniProt Q8U2T8 1-174) (natural protein)
2 | – | 24 | wild-type ferritin from Pyrococcus furiosus (WT-PfFtn) (from UniProt Q8U2T8 1-174) (natural protein)
